From patent US8883973B2

Biological target: human FcRn (complex of His-tagged FcRn alpha chain with beta 2 microglobulin) (human) (UniProt P55899)
Test: SPR (Biacore), human FcRn on chip, pH 6.0

Substance	fold FcRn binding (fold of Ka* relative to WT IgG1) [fold]	fold FcRn binding (fold of Ka* relative to WT) [fold]
257L IgG1 anti-VEGF antibody	3.4	
257N IgG1 anti-VEGF antibody	3.5	
428L/434S IgG1 anti-VEGF antibody		17.3
434S IgG1 anti-VEGF antibody		3.8
